From US20030165986A1 (IMMUNEX, published 2003)

Target: T1, TACI ligand (TACI-L), expressed on transfected cells (Homo sapiens (Human), UniProt Q9Y275 1-285)
T1 construct: cDNA of TACI-L transfected into cells on slides and into CV1 cells (flow cytometry); also called Neutrokine alpha; TL5
Test: slide binding assay on cDNA-transfected cells
Procedure: […] by adding 2 μg of the DNA encoding the members of the ligand family to a sterile tube and adding 75 μM choloroquine in transfection/growth medium to a final volume of 175 μl. 25 μl of DEAE-dextran (4 mg/ml in PBS) was then added to the DNA solution and mixed.
The growth medium was aspirated from the slides and replaced with 3 ml of 75 μM chloroquine in the transfectionfgrowth medium, followed by the addition of the DNA/DEAE-dextran mixture to the cells. The slides were rocked side-to-side and back-and-forth to distribute the precipitated DNA evenly. The slides were incubated at 37° C. for 4.5 hours.
To screen for positive pools expressing the cell-bound protein, slides were incubated with TACI:Fc and then with a radioiodinated protein probe (labeled goat anti-human Fc F(ab′)2) for 30 minutes at room temperature. The probe solution is then removed by aspiration and washed to remove the non-specifically bound probe. Finally, the slides were fixed by incubating each slide with 1 ml 2.5% glutaraldehyde in PBS for 30 minutes at room temperature to retain specifically bound label. The slides were then washed twice with 1 ml PBS and air-dried.

T1 sequence (Q9Y275 whole entry): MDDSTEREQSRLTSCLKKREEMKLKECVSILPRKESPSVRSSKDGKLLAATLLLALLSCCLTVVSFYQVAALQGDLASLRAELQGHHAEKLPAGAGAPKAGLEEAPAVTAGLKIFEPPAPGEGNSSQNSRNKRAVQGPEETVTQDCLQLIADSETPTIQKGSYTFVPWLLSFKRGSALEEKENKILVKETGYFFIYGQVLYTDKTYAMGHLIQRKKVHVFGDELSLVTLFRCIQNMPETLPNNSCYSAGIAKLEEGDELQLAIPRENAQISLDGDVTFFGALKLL

- binding result: binds
B1: TACI-Fc (Fc fusion)
chain: SGLGRSRRGGRSRVDQEERFPQGLWTGVAMRSCPEEQYWDPLLGTCMSCKTICNHQSQRTCAAFCRSLSCRKEQGKFYDHLLRDCISCASICGQHPKQCAYFCENKLRSPVNLPPELRRQRSGEVENNSDNSGRYQGLEHRGSEASPALPGLKLSADQVALVYST
notes: also called HuTACI/Fc; Fc chimera; not shown: Fc portion of human IgG1, fused in-frame at the 3' end
